The source of these data is PMC11267573, “A Robust α-L-Fucosidase from Prevotella nigrescens for Glycoengineering Therapeutic Antibodies” (ACS Chemical Biology, 2024).

Holding throughout (assay): p-nitrophenol release, initial-rate kinetics
The target of one data set is T1, MBP-PnfucA (Prevotella nigrescens, UniProt V8CPU0).
T1 construct: gene HMPREF1173_00896; pMAL-c4X, E. coli; poor purity
Format: biochemical. To be noted: assay details in supplement; MBP fusion. The source says:
p-nitrophenol release, initial-rate kinetics on MBP-PnfucA

For the next data set, the target named is T2, MBP-AlfC (Lacticaseibacillus paracasei, UniProt A0A422MHI3).
T2 construct: gene BN194_28780; pMAL-c4X, E. coli; codon-optimized synthetic gene
T2 sequence (A0A422MHI3 1-344): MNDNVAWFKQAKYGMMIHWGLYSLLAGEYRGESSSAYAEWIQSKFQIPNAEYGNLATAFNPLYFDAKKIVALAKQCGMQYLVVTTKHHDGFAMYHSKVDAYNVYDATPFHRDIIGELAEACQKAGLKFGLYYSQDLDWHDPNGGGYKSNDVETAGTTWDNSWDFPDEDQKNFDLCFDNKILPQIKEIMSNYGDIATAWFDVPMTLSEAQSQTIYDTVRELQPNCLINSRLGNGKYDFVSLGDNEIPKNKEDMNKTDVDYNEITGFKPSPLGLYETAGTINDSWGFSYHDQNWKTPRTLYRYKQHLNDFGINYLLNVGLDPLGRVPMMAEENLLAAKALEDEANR
Format: biochemical. To be noted: assay details in supplement; MBP fusion. The source says: p-nitrophenol release, initial-rate kinetics on MBP-AlfC

Substrate in data set [1]: C[C@@H]1O[C@@H](Oc2ccc([N+](=O)[O-])cc2)[C@@H](O)[C@H](O)[C@@H]1O
In kind it is biochemical, Prevotella nigrescens. The note with it: assay details in supplement. The source says:
p-nitrophenol release, initial-rate kinetics on Δ20PnfucA

As usually defined, the Km is the substrate concentration at which the rate is half of its maximum. For the molecule `C[C@@H]1O[C@@H](Oc2ccc([N+](=O)[O-])cc2)[C@@H](O)[C@H](O)[C@@H]1O` [pNP-Fuc], the results for the Km on MBP-PnfucA and at MBP-AlfC were 250 ± 20 µM and 620 ± 60 µM, respectively.

B1: Δ20PnfucA (Prevotella nigrescens CC14M) (protein)
chain: QTNSQQQESNNRATTTESVPQKYIPTAENLAARKRFEGFRFGIFLHWGIYSTFAQGEWYLNNKINKDEYAKAASAFYPSYFDADAWISAIKASGAKYITFTSRHHDSFSMFKTKESNYNIVDATPFKRDVLKELANACHKQNIDLHIYYSILDWIREDYPIGRTGLYTGRKLKPNYGTYFNFMKGQVSELLHNYGKVGAIWLDGYWDHDSDSIPFDWRMEEFYRYIHSIQPACLIGNNHHIAPIDGEDFQMFERDLPGENKAGLSGQAISRLPLEACQTMNGMWGYKVSDINYKSTSQLIELLVRSAAKGSNLLLNIGPQPNGELPALALDRLQGIGKWMQQYGETIYETMAGDVAEADWGVSTSKGKKTYLHVLEQDAKTISCALSVKPKRVIDFASRQPLSFHYDKKTKTLTTHIGSHRNVVDYIIEIEK
notes: 20 N-terminal residues (signal peptide) removed; apparent mass ~52 kDa; codon-optimized synthetic gene
As a reminder, the kcat is the number of substrate molecules converted per active site and unit of time at saturation. By kcat/Km is commonly meant the second-order rate constant that governs catalysis at low substrate concentration. As for B1, in data set [1], the Km worked out at 560 ± 50 µM, the kcat is 66.5 ± 2 s⁻¹ and the kcat/Km turned out to be 119000 M⁻¹ s⁻¹.
